Assay results published in patent publication US20150344570A1 (published 2015).
Changes are numbered by the printed parent chain. In names and notes the source's numbering stands. Read-outs that look alike come from different tables or passages of the source.

Tests used:
[1] = target: T1, FcγRIa extracellular domain with C-terminal His tag (human, UniProt P12314 16-292); assay: SPR (Biacore), antibody captured on chip, soluble FcγR as analyte, 1:1 Langmuir fit
T1 construct: extracellular domain; Soluble receptor expressed in FreeStyle293 cells; used as analyte in Biacore; also called FcgRIa; FcgRI; not shown: His tag at the C terminus
T1 sequence (P12314 16-292): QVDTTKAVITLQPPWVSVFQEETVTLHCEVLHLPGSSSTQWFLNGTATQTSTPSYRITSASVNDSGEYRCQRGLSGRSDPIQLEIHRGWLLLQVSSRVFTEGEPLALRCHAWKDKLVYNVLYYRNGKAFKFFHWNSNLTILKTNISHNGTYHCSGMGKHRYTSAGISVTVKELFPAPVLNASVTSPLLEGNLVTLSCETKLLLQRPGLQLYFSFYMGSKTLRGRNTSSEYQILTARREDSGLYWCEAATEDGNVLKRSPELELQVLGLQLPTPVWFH
Experimental: (§1) Analysis of interaction between objective antibody and the FcγR was carried out using Biacore T100 (GE Healthcare), Biacore T200, Biacore A100, and Biacore 4000. HBS-EP+ (GE Healthcare) was used as the running buffer, and the measurement temperature was set to 25° C. Chips produced by immobilizing the antigen peptide by the amine coupling method to a Series S sensor Chip CM5 (GE Healthcare), chips produced by allowing preliminarily biotinylated antigen peptides to interact with and immobilize onto a Series S Sensor Chip SA (certified) (GE Healthcare), chips produced by immobilizing Protein L (ACTIGEN, BioVision) to Series S Sencor Chip CM5 (GE Healthcare), or chips produced by immobilizing Protein A/G (Thermo Scientific) to Series S Sencor Chip CM5 (GE Healthcare) were used. Antibodies of interest were captured onto these chips, and allowed to interact to each FcγR diluted with running buffer. To regenerate and repeatedly use the chip, the antibodies captured onto the chip were washed off by reacting 10 mM glycine-HCl, pH 1.5.

[2] = target: T2, FcγRIIIa V extracellular domain with C-terminal His tag (human, UniProt P08637 17-208); assay: as above
T2 construct: extracellular domain; Soluble receptor, V158 allotype; also called FcgRIIIa V; FcgRIIIaV; not shown: His tag at the C terminus
T2 sequence (P08637 17-208 F176V): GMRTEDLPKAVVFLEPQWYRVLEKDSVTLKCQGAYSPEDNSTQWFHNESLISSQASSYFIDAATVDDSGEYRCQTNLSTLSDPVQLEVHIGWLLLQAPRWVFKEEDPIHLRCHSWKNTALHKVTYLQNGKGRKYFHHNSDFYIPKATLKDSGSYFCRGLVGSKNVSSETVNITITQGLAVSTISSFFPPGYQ
Experimental: as §1

[3] = target: T3, FcγRIIa H extracellular domain with C-terminal His tag (human, UniProt P12318 34-217); assay: as above
T3 construct: extracellular domain; Soluble receptor, H131 allotype; also called FcgRIIa H; FcgRIIaH; not shown: His tag at the C terminus
T3 sequence (looked up): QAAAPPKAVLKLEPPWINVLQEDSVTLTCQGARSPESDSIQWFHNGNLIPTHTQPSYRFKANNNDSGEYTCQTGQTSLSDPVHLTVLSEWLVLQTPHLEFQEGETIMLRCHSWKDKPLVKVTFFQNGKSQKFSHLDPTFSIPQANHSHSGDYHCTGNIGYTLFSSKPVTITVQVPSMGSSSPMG
Experimental: as §1

[4] = target: T4, FcγRIIIa F extracellular domain with C-terminal His tag (human, UniProt P08637 17-208); assay: as above
T4 construct: extracellular domain; Soluble receptor, F158 allotype; also called FcgRIIIa F; FcgRIIIaF; not shown: His tag at the C terminus
T4 sequence (P08637 17-208): as the sequence (P08637 17-208 F176V) above, with V160F counted along it
Experimental: as §1

[5] = target: T5, FcγRIIa R extracellular domain with C-terminal His tag (human, UniProt P12318 34-217); assay: as above
T5 construct: extracellular domain; Soluble receptor, R131 allotype; also called FcgRIIa R; FcgRIIaR; not shown: His tag at the C terminus
T5 sequence (looked up): T3 sequence (looked up) with H134R
Experimental: as §1

[6] = target: T6, FcγRIIb extracellular domain with C-terminal His tag (human, UniProt P31994 43-217); assay: as above
T6 construct: extracellular domain; also called FcgRIIb; CD32B; not shown: His tag at the C terminus
T6 sequence (looked up): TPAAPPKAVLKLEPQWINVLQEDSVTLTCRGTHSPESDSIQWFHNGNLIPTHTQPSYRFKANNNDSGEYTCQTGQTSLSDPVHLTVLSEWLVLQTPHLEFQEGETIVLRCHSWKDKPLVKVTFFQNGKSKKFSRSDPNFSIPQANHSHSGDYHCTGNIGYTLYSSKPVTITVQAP
Experimental: as §1

[7] = target: T2, FcγRIIIa V extracellular domain with …; assay: as above; remark: listed apart in the source
Experimental: (§2) Specifically, H240-Hl134 (SEQ ID NO: 88) resulting from introduction of L234Y/L235Y/G236W/H268D/S298A into H240-Hl033 and H240-Kn132 (SEQ ID NO: 89) resulting from introduction of K326D/A330M/K334E into H240-Kn033 were constructed according to the method described in Reference Example 1.
as §1

[8] = target: T4, FcγRIIIa F extracellular domain with …; assay: as above; remark: listed apart in the source
Experimental: as §2, §1

FcgRIIIa F = target: T7, FcgRIIIa F (human, UniProt P08637 17-208); assay: SPR (Biacore), antibody captured, FcgR as analyte
T7 construct: extracellular domain; polymorphic site made after J. Clin. Invest; also called FcγRIIIa F
T7 sequence (P08637 17-208): as the sequence (P08637 17-208 F176V) above, with V160F counted along it
Experimental: as §1

FcgRIIb [9] = target: T8, FcgRIIb (human, UniProt P31994 43-217); assay: SPR (Biacore), antibody captured, FcgR as analyte
T8 construct: extracellular domain; also called FcγRIIb; CD32B
T8 sequence (looked up): T6 sequence (looked up)
Experimental: as §1

FcgRIIIa V = target: T9, FcgRIIIa V (human, UniProt P08637 17-208); assay: SPR (Biacore), antibody captured, FcgR as analyte
T9 construct: extracellular domain; polymorphic site made after J. Clin. Invest; also called FcγRIIIa V
T9 sequence (P08637 17-208 F176V limits assumed): as the sequence (P08637 17-208 F176V) above
Experimental: as §1

FcgRIa = target: T10, FcgRIa (human, UniProt P12314 16-292); assay: SPR (Biacore), antibody captured, FcgR as analyte
T10 construct: extracellular domain; also called FcγRIa; FcγRI
T10 sequence (P12314 16-292): as the sequence (P12314 16-292) above
Experimental: as §1

FcgRIIa H = target: T11, FcgRIIa H (human, UniProt P12318 34-217); assay: SPR (Biacore), antibody captured, FcgR as analyte
T11 construct: extracellular domain; also called FcγRIIa H; FcγRIIa type H
T11 sequence (looked up): T3 sequence (looked up)
Experimental: as §1

FcgRIIa R = target: T12, FcgRIIa R (human, UniProt P12318 34-217); assay: SPR (Biacore), antibody captured, FcgR as analyte
T12 construct: extracellular domain; also called FcγRIIa R; FcγRIIa type R
T12 sequence (looked up): T3 sequence (looked up) with H134R
Experimental: as §1

FcgRIIaH = target: T13, FcgRIIaH (human, UniProt P12318 34-217); assay: SPR (Biacore); KD of IL6R-B3/IL6R-L divided by KD of the sample
T13 construct: extracellular domain; Allotype H131; also called FcγRIIa H; FcgRIIa type H; not shown: His tag attached to the C terminus
T13 sequence (looked up): T3 sequence (looked up)

FcgRIIb [10] = target: T14, FcgRIIb (human, UniProt P31994 43-217); assay: as above
T14 construct: extracellular domain; also called FcγRIIb; CD32B; not shown: His tag attached to the C terminus
T14 sequence (looked up): T6 sequence (looked up)

FcgRIIaR = target: T15, FcgRIIaR (human, UniProt P12318 34-217); assay: as above
T15 construct: extracellular domain; Allotype R131; also called FcγRIIa R; FcgRIIa type R; not shown: His tag attached to the C terminus
T15 sequence (looked up): T3 sequence (looked up) with H134R

B1: H240-Kn061/H240-Hl071/L73-k0 (antibody, human IgG1, kappa)
heavy 1: QDQLVQSGAEVKKPGASVKVSCKASGFNIKDTYIQWVRQAPGQGLEWMGRIDPLRKQTKYREKFEGRVTITADTSTNTAYMELSSLRSEDTAVYYCVRSGREFDYWGQGTLVTVSSASTKGPSVFPLAPSSKSTSGGTAALGCLVKDYFPEPVTVSWNSGALTSGVHTFPAVLQSSGLYSLSSVVTVPSSSLGTQTYICNVNHKPSNTKVDKKVEPKSCDKTHTCPPCPAPEYYWGPSVFLFPPKPKDTLMISRTPEVTCVVVDVSDEDPEVKFNWYVDGVEVHNAKTKPREEQYNATYRVVSVLTVLHQDWLNGKEYKCKVSNKALPAPIEKTISKAKGQPREPQVCTLPPSRDELTKNQVSLWCLVKGFYPSDIAVEWESNGQPENNYKTTPPVLDSDGSFFLYSKLTVDKSRWQQGNVFSCSVMHEALHNHYTQKSLSLSP
heavy 2: QDQLVQSGAEVKKPGASVKVSCKASGFNIKDTYIQWVRQAPGQGLEWMGRIDPLRKQTKYREKFEGRVTITADTSTNTAYMELSSLRSEDTAVYYCVRSGREFDYWGQGTLVTVSSASTKGPSVFPLAPSSKSTSGGTAALGCLVKDYFPEPVTVSWNSGALTSGVHTFPAVLQSSGLYSLSSVVTVPSSSLGTQTYICNVNHKPSNTKVDKKVEPKSCDKTHTCPPCPAPELLGGPSVFLFPPKPKDTLMISRTPEVTCVVVDVSHEDPEVKFNWYVDGVEVHNAKTKPREEQYNSTYRVVSVLTVLHQDWLNGKEYKCKVSNDALPMPIEETISKAKGQPREPQVYTLPPSRCELTKNQVSLSCAVKGFYPSDIAVEWESNGQPENNYKTTPPVLDSDGSFFLVSKLTVDKSRWQQGNVFSCSVMHEALHNHYTQKSLSLSP
light: DIQMTQSPSSLSASVGDRVTITCRASQDIHKYIAWYQQKPGQAPRLLIQYTSTLQPGVPSRFSGSGSGTDYTFTISSLQPEDIATYYCLQYEQLRTFGGGTKVEIKRTVAAPSVFIFPPSDEQLKSGTASVVCLLNNFYPREAKVQWKVDNALQSGNSQESVTEQDSKDSTYSLSSTLTLSKADYEKHKVYACEVTHQGLSSPVTKSFNRGEC
notes: Heterodimerized anti-epiregulin IgG1, knobs-into-holes
Q: Which results are given for B1?
A: Kd [1]: 0.14 nM; Kd [2]: 1.8 nM; Kd [3]: 280 nM; Kd [4]: 5.1 nM; Kd [5]: 350 nM; Kd [6]: 1200 nM; Kd [7]: 1.8 nM; Kd [8]: 5.1 nM

B2: H240-Kn061/H240-Hl071/L73-k0 (antibody, human IgG1, kappa)
heavy 1: B1 heavy 1
heavy 2: B1 heavy 2
light: B1 light
notes: Heterodimerized: L234Y/L235Y/G236W/H268D/S298A in the knob chain, K326D/A330M/K334E in the hole chain
Q: B2 was tested. Which Kd (FcgRIIIa F) did it give?
A: Its Kd is 5.1 nM.

Q: What about the Kd (FcgRIIb [9]) of the same binder?
A: Its Kd is 1200 nM.

Q: What about the Kd (FcgRIIIa V) of the same binder?
A: The Kd was 1.8 nM.

Q: And the Kd (FcgRIa)?
A: The Kd was 0.14 nM.

Q: And the Kd (FcgRIIa H)?
A: Its Kd is 280 nM.

Q: And the Kd (FcgRIIa R)?
A: Its Kd is 350 nM.

B3: IL6R-BP253/IL6R-L (antibody, human IgG1, kappa)
heavy: QVQLQESGPGLVKPSETLSLTCAVSGHSISHDHAWSWVRQPPGEGLEWIGFISYSGITNYNPSLQGRVTISRDNSKNTLYLQMNSLRAEDTAVYYCARSLARTTAMDYWGEGTLVTVSSASTKGPSVFPLAPSSKSTSGGTAALGCLVKDYFPEPVTVSWNSGALTSGVHTFPAVLQSSGLYSLSSVVTVPSSSLGTQTYICNVNHKPSNTKVDKKVEPKSCDKTHTCPPCPAPELLGGPSVFLFPPKPKDTLMISRTPEVTCVVVDVEHEDPEVKFNWYVDGVEVHNAKTKPREEQYNSTYRVVSVLTVLHQDWLNGKEYKCKVSNKAFPAPIEKTISKAKGQPREPQVYTLPPSRDELTKNQVSLTCLVKGFYPSDIAVEWESNGQPENNYKTTPPVLDSDGSFFLYSKLTVDKSRWQQGNVFSCSVMHEALHNHYTQESLSLSP
light: not shown
notes: Homodimer
Q: Which results are given for B3?
A: relative KD (FcgRIIaH): 0.9; relative KD (FcgRIIb [10]): 349; relative KD (FcgRIIaR): 480
